Test results as given in PMC3912326.
Like-named read-outs stand apart in the source and are kept apart here.

Tests used:
Assay in all cases: fluorescence anisotropy
[1] = biological target: T1, mouse transferrin receptor (mTfR) (Mus musculus, UniProt Q62351 89-763)
[2] = biological target: T1, mouse transferrin receptor (mTfR); remark: listed apart in the source
[3] = biological target: human transferrin receptor (hTfR) (Homo sapiens, UniProt P02786 89-760)
[4] = biological target: transferrin (Tf) (UniProt P02787 20-698)
[5] = biological target: T1, mouse transferrin receptor (mTfR); remark: listed apart in the source

T1 sequence (Q62351 89-763): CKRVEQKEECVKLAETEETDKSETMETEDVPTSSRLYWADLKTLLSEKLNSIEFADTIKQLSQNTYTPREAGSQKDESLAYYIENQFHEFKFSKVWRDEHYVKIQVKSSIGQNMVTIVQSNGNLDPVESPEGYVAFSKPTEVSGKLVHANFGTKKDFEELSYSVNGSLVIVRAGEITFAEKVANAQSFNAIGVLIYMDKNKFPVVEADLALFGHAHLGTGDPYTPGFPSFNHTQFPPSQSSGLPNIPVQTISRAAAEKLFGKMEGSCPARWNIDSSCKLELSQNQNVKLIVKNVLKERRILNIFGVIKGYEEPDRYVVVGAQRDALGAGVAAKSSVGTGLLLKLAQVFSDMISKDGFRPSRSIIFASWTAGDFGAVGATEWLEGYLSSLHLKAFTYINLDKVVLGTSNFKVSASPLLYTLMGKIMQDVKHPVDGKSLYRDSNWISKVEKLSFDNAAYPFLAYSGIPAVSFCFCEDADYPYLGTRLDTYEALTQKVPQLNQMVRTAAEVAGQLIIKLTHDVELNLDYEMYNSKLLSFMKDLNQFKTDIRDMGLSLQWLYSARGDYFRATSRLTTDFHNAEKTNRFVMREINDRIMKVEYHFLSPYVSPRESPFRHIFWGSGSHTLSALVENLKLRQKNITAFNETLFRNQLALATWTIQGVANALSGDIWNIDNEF
Sequence of human transferrin receptor (hTfR) (P02786 89-760): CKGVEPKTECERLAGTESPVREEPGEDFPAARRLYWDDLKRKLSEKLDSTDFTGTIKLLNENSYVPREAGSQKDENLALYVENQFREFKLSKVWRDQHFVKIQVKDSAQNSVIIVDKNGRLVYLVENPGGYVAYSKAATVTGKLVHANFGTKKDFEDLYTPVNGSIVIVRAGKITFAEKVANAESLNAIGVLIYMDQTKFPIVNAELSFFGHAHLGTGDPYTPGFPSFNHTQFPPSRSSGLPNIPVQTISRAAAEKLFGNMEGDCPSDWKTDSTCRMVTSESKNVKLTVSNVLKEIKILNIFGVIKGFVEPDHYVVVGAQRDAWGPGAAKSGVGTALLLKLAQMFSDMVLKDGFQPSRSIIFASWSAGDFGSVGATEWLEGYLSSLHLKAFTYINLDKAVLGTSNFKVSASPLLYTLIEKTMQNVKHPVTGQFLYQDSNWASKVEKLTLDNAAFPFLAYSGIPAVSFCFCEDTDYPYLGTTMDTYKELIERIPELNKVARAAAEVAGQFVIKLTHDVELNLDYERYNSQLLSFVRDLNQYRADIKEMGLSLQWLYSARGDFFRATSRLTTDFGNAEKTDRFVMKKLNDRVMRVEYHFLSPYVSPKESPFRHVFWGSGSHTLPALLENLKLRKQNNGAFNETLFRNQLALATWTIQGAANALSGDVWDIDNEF
Sequence of transferrin (Tf) (P02787 20-698): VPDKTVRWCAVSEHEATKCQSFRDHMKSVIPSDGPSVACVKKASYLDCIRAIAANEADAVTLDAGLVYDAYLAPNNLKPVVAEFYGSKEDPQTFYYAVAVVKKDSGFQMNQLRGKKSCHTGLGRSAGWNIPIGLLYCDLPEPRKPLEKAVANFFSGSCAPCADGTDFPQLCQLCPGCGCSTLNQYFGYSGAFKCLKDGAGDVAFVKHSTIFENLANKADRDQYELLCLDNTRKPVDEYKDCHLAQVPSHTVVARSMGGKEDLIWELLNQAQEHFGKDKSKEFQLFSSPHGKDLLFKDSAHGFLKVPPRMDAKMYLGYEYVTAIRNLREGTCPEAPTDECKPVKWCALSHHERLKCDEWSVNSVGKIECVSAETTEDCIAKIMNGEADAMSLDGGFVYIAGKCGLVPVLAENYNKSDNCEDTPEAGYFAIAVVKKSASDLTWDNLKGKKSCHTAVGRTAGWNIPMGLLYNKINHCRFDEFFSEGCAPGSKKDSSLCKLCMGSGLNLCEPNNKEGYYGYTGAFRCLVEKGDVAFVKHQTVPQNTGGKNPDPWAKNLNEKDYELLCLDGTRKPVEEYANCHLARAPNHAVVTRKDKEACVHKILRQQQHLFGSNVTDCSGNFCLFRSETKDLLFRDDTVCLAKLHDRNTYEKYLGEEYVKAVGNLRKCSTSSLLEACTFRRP

## CACTTAGTATCGCTACGTTCTTTGGTTCCGTTCGG (structured_DNA, 5' amino C6 linker) [GS24min]
[1]
  Kd: 1200 ± 390 nM

## GCGTGTGCACACGGTCACTTAGTATCGCTACGTTCTTTGGTTCCGTTCGG (structured_DNA, 5' amino C6 linker) [GS24 (equilibrium mixture A-1F:A-2F 20:80)]
[2]
  Kd: 250 ± 40 nM
[3]
  Kd: 1000 ± 250 nM
[4]
  binding result: no binding

## GCGTGTGCACACGGTCACTTAGTATCGCTACGTTCTTTGGTTCCGTTCGG (structured_DNA, 5' amino C6 linker) [GS24 fold A-2F (purified active fold)]
[5]
  Kd: 130 ± 30 nM
